Reference: article PMC10715029, “Interaction and assembly of the DNA replication core proteins of Kaposi’s sarcoma-associated herpesvirus” (Microbiology Spectrum, 2023)

Assays:
Conditions in all cases: partners not purified
GAL4-ORF40/41 [1] = target: T1, GAL4-ORF40/41 (Kaposi's sarcoma-associated herpesvirus …, UniProt Q2HR92 1-669); experiment: two-hybrid; mammalian two-hybrid (GAL4/VP16) in 293T cells, pGal4(5×)-Luc reporter, only the GAL4 and the VP16 fusion coexpressed, luciferase at 24 h, fold activation over empty vector; radicicol (0.25-1 µM) inhibited the activation by GAL4-ORF59 and VP16-ORF9 dose-dependently
T1 construct: KSHV ORF40/41, primase-associated factor (PAF); source: 293T, transfected, mammalian two-hybrid fusion
T1 sequence: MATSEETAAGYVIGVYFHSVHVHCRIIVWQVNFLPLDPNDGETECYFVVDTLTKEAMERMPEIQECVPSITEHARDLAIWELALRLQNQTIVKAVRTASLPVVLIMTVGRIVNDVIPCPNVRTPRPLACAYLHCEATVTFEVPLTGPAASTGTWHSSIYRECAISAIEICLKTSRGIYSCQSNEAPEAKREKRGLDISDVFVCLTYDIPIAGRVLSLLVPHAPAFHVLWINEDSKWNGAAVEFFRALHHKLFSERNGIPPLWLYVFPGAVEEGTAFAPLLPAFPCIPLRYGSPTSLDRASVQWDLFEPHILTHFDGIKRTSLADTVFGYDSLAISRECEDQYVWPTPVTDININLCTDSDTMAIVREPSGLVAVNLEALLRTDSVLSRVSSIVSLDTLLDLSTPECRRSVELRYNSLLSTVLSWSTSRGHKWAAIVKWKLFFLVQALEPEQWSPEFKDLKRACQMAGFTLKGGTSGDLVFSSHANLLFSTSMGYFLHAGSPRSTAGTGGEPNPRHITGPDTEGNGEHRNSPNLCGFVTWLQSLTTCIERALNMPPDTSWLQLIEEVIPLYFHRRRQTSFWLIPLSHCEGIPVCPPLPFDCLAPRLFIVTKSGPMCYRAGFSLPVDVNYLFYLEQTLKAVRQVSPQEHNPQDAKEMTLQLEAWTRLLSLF

GAL4-ORF56 = target: T2, GAL4-ORF56 (Kaposi's sarcoma-associated herpesvirus …, UniProt Q76RG1 1-843); experiment: two-hybrid; mammalian two-hybrid (GAL4/VP16) in 293T cells, pGal4(5×)-Luc reporter, GAL4 and VP16 fusions coexpressed with further FLAG-tagged core replication proteins, luciferase at 24 h, fold activation over empty vector; radicicol (0.25-1 µM) inhibited the activation by GAL4-ORF56, VP16-ORF44 and F-ORF40/41 dose-dependently
T2 construct: KSHV ORF56, primase (PRI); also called GALF4-ORF56; source: 293T, transfected, mammalian two-hybrid fusion
T2 sequence: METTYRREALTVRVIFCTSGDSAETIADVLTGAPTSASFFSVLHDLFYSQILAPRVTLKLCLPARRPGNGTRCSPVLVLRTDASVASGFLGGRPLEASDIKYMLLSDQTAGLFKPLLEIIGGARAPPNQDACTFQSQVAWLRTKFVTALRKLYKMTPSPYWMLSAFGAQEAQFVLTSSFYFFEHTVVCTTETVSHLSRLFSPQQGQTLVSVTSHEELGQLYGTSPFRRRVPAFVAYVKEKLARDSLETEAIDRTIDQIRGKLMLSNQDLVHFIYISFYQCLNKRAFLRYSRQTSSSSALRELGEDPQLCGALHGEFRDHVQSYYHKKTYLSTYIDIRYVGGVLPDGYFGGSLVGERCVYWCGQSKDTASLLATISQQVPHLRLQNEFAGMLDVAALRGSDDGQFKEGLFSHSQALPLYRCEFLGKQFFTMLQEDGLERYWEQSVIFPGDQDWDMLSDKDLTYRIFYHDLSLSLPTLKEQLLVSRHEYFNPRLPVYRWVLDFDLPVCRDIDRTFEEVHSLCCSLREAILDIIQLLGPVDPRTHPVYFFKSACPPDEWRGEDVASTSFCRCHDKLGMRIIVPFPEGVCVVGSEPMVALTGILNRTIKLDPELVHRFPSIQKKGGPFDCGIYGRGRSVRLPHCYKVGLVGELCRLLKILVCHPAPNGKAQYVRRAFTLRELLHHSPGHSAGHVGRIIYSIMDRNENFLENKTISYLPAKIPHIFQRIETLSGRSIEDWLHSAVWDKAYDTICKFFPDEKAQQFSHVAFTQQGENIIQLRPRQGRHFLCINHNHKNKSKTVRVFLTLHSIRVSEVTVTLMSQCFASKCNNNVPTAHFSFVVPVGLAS

GAL4-ORF40/41 [2] = target: T1, GAL4-ORF40/41; experiment: as above

B1: VP16-ORF6 (natural protein)
chain: MALKGPQTLEENIGSAAPTGPCGYLYAYVTHNFPIGEASLLGNGYPEAKVFSLPLLHGLTVESDFPLNVKAVHKKIDATTASVKLTSYHREAIVFHNTHLFQPIFQGKGLEKLCRESRELFGFSTFVEQQHKGTLWSPEACPQLPCANEIFMAVIVTEGFKERLYGGKLVPVPSQTTPVHIGEHQAFKIPLYDEDLFGPSRAQELCRFYNPDISRYLHDSIFTGIAQALRVKDVSTVIQASERQFVHDQYKIPKLVQAKDFPQCASRGTDGSTLMVIDSLVAELGMSYGLSFIEGPQDSCEVLNYDTWPIFENCETPDARLRALEVWHAEQALHIGAQLFAANSVLYLTRVAKLPQKNQRGDANMYNSFYLQHGLGYLSEATVKENGASAFKGVPVSALDGSSYTLQHLAYASSFSPHLLARMCYYLQFLPHHKNTNSQSYNVVDYVGTAAPSQMCDLCQGQCPAVCINTLFYRMKDRFPPVLSNVKRDPYVITGTAGTYNDLEILGNFATFREREEEGNPVEDAPKYTYWQLCQNITEKLASMGISEGGDALRTLIVDIPSFVKVFKGIDSTVEAELLKFINCMIKNNYNFRENIKSVHHILQFACNVYWQAPCPVFLTLYYKSLLTVIQDICLTSCMMYEQDNPAVGIVPSEWLKMHFQTMWTNFKGACFDKGAITGGELKIVHQSMFCDLFDTDAAIGGMFAPARMQVRIARAMLMVPKTIKIKNRIIFSNSTGAESIQAGFMKPASQRDSYIVGGPYMKFLNALHKTLFPSTKTSALYLWHKIGQTTKNPILPGVSGEHLTELCNYVKASSQAFEEINVLDLVPDTLTSYAKIKLNSSILRACGQTQFYATTLSCLSPVTQLVPAEEYPHVLGPVGLSSPDEYRVKVAGRSVTIVQSTLKQAVSTNGRLRPIITVPLVVNKYTGSNGNTNVFHCANLGYFSGRGVDRNLRPESVPFKKNNVSSMLRKRHVIMTPLVDRLVKRIVGINSGEFEAEAVKRSVQNVLEDRDNPNLPKTVVLELVKHLGSSCASLTEEDVIYYLGPYAVLGDEVLSLLSTVGQAGVPWTAEGVASVIQDIIDDCELQFVGPEEPCLIQGQSVVEELFPSPGVPSLTVGKKRKIASLLSDLDL
notes: source: 293T, transfected, mammalian two-hybrid fusion
- fold reporter activation (GAL4-ORF40/41 [1]): 56 fold

B2: VP16-ORF40/41 (natural protein)
chain: MATSEETAAGYVIGVYFHSVHVHCRIIVWQVNFLPLDPNDGETECYFVVDTLTKEAMERMPEIQECVPSITEHARDLAIWELALRLQNQTIVKAVRTASLPVVLIMTVGRIVNDVIPCPNVRTPRPLACAYLHCEATVTFEVPLTGPAASTGTWHSSIYRECAISAIEICLKTSRGIYSCQSNEAPEAKREKRGLDISDVFVCLTYDIPIAGRVLSLLVPHAPAFHVLWINEDSKWNGAAVEFFRALHHKLFSERNGIPPLWLYVFPGAVEEGTAFAPLLPAFPCIPLRYGSPTSLDRASVQWDLFEPHILTHFDGIKRTSLADTVFGYDSLAISRECEDQYVWPTPVTDININLCTDSDTMAIVREPSGLVAVNLEALLRTDSVLSRVSSIVSLDTLLDLSTPECRRSVELRYNSLLSTVLSWSTSRGHKWAAIVKWKLFFLVQALEPEQWSPEFKDLKRACQMAGFTLKGGTSGDLVFSSHANLLFSTSMGYFLHAGSPRSTAGTGGEPNPRHITGPDTEGNGEHRNSPNLCGFVTWLQSLTTCIERALNMPPDTSWLQLIEEVIPLYFHRRRQTSFWLIPLSHCEGIPVCPPLPFDCLAPRLFIVTKSGPMCYRAGFSLPVDVNYLFYLEQTLKAVRQVSPQEHNPQDAKEMTLQLEAWTRLLSLF
notes: KSHV ORF40/41, primase-associated factor (PAF); source: 293T, transfected, mammalian two-hybrid fusion
- fold reporter activation (F-ORF44 coexpressed) (GAL4-ORF56): ≤ 280 fold

B3: VP16-ORF44 (natural protein)
chain: MDSSEGCTDMDEPSPGFILNMTSDAKVRSVVEQIDRLSNITTSPPEMGWYDLEFDPLEDEGPFLPFSAYVITGTAGAGKSTSVSALHQNLNCLITGATVVAAQNLSRALKSYCPTIYHAFGFKSRHINICQRKVPKVTQSSIEQLQRYELARYWPTVTDIIREFMRKKQKGQYSSLSQSAFRLLCRMGGANLWTSNIIVIDEAGTLSSHILTAVVFFYWFYNSWLDTPLYRNGAVPCIVCVGSPTQTDAFQSVFNHTQQRNEISACDNVLTFLLGKREVADYIRLDENWALFINNKRCTDPQFGHLLKTLEYNLDISPELMDYIDRFVVPKSKILDPLEYAGWTRLFISHQEVKSFLATLHTCLSSNKDAVSTKLFTCPVVCEVFTEPFEEYKRAVGLTHMTPIEWVTKNLFRLSNYSQFADQDMAVVGTYITDASTQITFATKFVKNSYATLTGKTKKCICGFHGSYQRFKSILDGELFIESHSHDNPAYVYSFLSTLLYNAMYSFYAHGVKQGHEEFLRDLRELPVSQELISEMSSEDVLGQEGDTDAFYLTASLPPSPTHAALPTLVAYYSGAKELFCNRLALARRHFGDEFLHSDFSTFTVNIVVRDGVDFVSTSPGLHGLVAYASTIDTYIIQGYTFLPVRFGRPGGQRLSEDLRRKMPSIVVQDSSGFIACLENNVTKMTETLEGGDVFNICCAGDYGISSNLAMTIVKAQGVSLSRVAISFGNHRNIRASLVYVGVSRAIDARYLVMDSNPLKLMDRGDAQSPSSKYIIKALCNPKTTLIY
notes: KSHV ORF44, helicase (HEL); source: 293T, transfected, mammalian two-hybrid fusion
- fold reporter activation (F-ORF40/41 coexpressed) (GAL4-ORF56): ≤ 55 fold
- fold reporter activation (F-ORF56 coexpressed) (GAL4-ORF40/41 [2]): ≤ 60 fold
